The source of these data is publication PMC10462004.

The target in the experiment is mouse PD-1 (programmed cell death-1), wild type, expressed on CHO cells (mouse) (UniProt Q02242). Briefly: biomembrane force probe.
Chain of UniProt Q02242 (Q02242 25-288): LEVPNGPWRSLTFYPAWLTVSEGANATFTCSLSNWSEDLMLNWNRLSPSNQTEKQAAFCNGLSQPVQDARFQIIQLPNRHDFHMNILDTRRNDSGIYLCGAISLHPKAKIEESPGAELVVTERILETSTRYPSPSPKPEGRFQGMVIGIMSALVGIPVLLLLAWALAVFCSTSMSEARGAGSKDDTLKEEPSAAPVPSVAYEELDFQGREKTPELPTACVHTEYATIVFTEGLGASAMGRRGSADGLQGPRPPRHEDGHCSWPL

On to “mouse PD-L2 with C-terminal biotin (from UniProt Q9WUL5 20-221) (ligand)”, for which the F1/2 (force at which 50% of the bonds rupture) is 12.1 pN.
